In publication PMC6248932:

Experiments:
[1] = biological target: BG505 UFO gp140 trimer (HIV-1 (clade A, strain BG505)); assay: native gel or EMSA
[2] = biological target: BG505 UFO gp140 trimer (HIV-1 (clade A, strain BG505)); assay: SEC
[3] = biological target: BG505 SOSIP.664 gp140 trimer (HIV-1 (clade A, strain BG505)) (UniProt Q2N0S6); assay: native gel or EMSA
[4] = biological target: BG505 SOSIP.664 gp140 trimer (HIV-1 (clade A, strain BG505)) (UniProt Q2N0S6); assay: SEC
[5] = biological target: clade B tier 3 H078.14 UFO-BG gp140 trimer (HIV-1 (clade B, strain H078.14) | HIV-1 (clade A, strain BG505)); assay: crystal structure

BG505 UFO gp140 trimer showed a stoichiometry N [1] of 3 and a stoichiometry N [2] of 3.

With “BG505 SOSIP.664 gp140 trimer (from UniProt Q2N0S6 31-505) (complex)” the stoichiometry N [3] was 3 and the stoichiometry N [4] was 3.

In the case of “clade B tier 3 H078.14 UFO-BG gp140 trimer”, the stoichiometry N [5] is reported as 3.
